From publication PMC10397247
Each block holds one binder with its values, some of them ahead of it.

What was measured:
[1] = molecular target: T1, P4mS; experiment: two-hybrid library CCNG1;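 further: natural log of median RNA to DNA barcode read ratio; higher means stronger binding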
T1 chain: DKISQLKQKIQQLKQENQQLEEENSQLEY

[2] = molecular target: T2, P7mS; experiment: two-hybrid library CCNG1;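 further: natural log of median RNA to DNA barcode read ratio; higher means stronger binding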
T2 chain: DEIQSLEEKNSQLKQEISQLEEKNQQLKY

[3] = molecular target: T3, P8mS; experiment: two-hybrid library CCNG1;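 further: natural log of median RNA to DNA barcode read ratio; higher means stronger binding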
T3 chain: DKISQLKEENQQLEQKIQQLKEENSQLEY

[4] = molecular target: T4, P9mS; experiment: two-hybrid library CCNG1;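 further: natural log of median RNA to DNA barcode read ratio; higher means stronger binding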
T4 chain: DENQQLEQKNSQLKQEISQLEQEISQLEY

[5] = molecular target: T5, P5mS; experiment: two-hybrid library CCNG1
T5 chain: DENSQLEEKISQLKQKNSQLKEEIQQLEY

[6] = molecular target: T6, P6mS; experiment: two-hybrid library CCNG1
T6 chain: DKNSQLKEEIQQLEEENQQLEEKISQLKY

[7] = molecular target: T7, P3mS; experiment: two-hybrid library CCNG1
T7 chain: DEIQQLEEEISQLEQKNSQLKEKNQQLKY

[8] = molecular target: T8, P12mS; experiment: two-hybrid library CCNG1
T8 chain: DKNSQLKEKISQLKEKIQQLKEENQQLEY

[9] = molecular target: T9, 4H3592-bA; experiment: two-hybrid library CCNG1
T9 chain: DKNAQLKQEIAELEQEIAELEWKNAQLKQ

[10] = molecular target: T10, 4H1406-bA; experiment: two-hybrid library CCNG1
T10 chain: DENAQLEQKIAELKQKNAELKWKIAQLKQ

[11] = molecular target: T11, 4H3907-bA; experiment: two-hybrid library CCNG1
T11 chain: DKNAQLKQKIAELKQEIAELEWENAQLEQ

[12] = molecular target: T12, 4H3601-bA; experiment: two-hybrid library CCNG1
T12 chain: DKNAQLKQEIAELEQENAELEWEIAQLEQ

[13] = molecular target: T13, 4H1387-bA; experiment: two-hybrid library CCNG1
T13 chain: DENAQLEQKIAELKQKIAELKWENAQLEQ

[14] = molecular target: T14, 4H4038-bA; experiment: two-hybrid library CCNG1
T14 chain: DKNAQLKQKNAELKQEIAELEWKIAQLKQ

[15] = molecular target: T15, P5SC1; experiment: two-hybrid library CC1; settings: mean of both orientations
T15 chain: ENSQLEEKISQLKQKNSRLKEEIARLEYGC

[16] = molecular target: T16, P8; experiment: two-hybrid library CC1; settings: mean of both orientations
T16 chain: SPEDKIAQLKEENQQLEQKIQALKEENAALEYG

[17] = molecular target: T17, P7mS; experiment: two-hybrid library CC1; settings: mean of both orientations
T17 chain: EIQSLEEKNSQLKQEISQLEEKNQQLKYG

[18] = molecular target: T18, P9; experiment: two-hybrid library CC1; settings: mean of both orientations
T18 chain: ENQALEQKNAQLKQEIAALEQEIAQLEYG

[19] = molecular target: T19, P4mS; experiment: two-hybrid library CC1; settings: mean of both orientations
T19 chain: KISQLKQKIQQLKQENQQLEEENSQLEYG

[20] = molecular target: T20, P6SC2; experiment: two-hybrid library CC1; settings: mean of both orientations
T20 chain: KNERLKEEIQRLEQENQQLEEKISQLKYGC

[21] = molecular target: T21, P8mS; experiment: two-hybrid library CC1; settings: mean of both orientations
T21 chain: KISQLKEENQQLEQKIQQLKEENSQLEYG

[22] = molecular target: T22, P5mS; experiment: two-hybrid library CC1; settings: mean of both orientations
T22 chain: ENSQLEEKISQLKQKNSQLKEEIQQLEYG

[23] = molecular target: T23, P7; experiment: two-hybrid library CC1; settings: mean of both orientations
T23 chain: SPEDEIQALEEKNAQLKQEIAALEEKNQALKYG

[24] = molecular target: T24, P5; experiment: two-hybrid library CC1; settings: mean of both orientations
T24 chain: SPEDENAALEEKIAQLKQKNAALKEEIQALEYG

[25] = molecular target: T25, P6mS; experiment: two-hybrid library CC1; settings: mean of both orientations
T25 chain: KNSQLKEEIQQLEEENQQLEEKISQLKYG

[26] = molecular target: T26, P6SC1; experiment: two-hybrid library CC1; settings: mean of both orientations
T26 chain: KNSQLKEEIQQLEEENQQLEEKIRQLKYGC

[27] = molecular target: T27, P4; experiment: two-hybrid library CC1; settings: mean of both orientations
T27 chain: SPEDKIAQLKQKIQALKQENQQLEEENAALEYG

[28] = molecular target: T28, P3; experiment: two-hybrid library CC1; settings: mean of both orientations
T28 chain: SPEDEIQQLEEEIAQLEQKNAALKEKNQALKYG

[29] = molecular target: T29, P6; experiment: two-hybrid library CC1; settings: mean of both orientations
T29 chain: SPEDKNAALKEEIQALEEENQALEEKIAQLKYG

[30] = molecular target: T30, P3mS; experiment: two-hybrid library CC1; settings: mean of both orientations
T30 chain: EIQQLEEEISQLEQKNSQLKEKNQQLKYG

[31] = molecular target: T31, P5SC2; experiment: two-hybrid library CC1; settings: mean of both orientations
T31 chain: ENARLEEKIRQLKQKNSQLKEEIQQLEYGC

[32] = molecular target: T32, P12; experiment: two-hybrid library CC1
T32 chain: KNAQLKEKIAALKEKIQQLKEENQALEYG

interaction score [1]: -0.954
interaction score [2]: -0.947
interaction score [3]: -0.844
interaction score [4]: -0.472
interaction score [5]: -1.57
interaction score [6]: -0.944
interaction score [7]: 0.362
interaction score [8]: -1.27
Binder: DKNSQLKEKISQLKEKIQQLKEENQQLEY [P12mS]

interaction score [9]: 2.02
interaction score [10]: -1.1
interaction score [11]: 1.32
interaction score [12]: -0.539
interaction score [13]: -0.828
interaction score [14]: 0.838
Binder: DENAQLEQKIAELKQKIAELKWENAQLEQ [4H1387-bA]

Binder: KNAQLKEKIAALKEKIQQLKEENQALEYG [P12]
interaction score [15]: -2.96
interaction score [16]: -2.9
interaction score [17]: -2.85
interaction score [18]: -1.37
interaction score [19]: -2.91
interaction score [20]: -2.47
interaction score [21]: -2.85
interaction score [22]: -2.78
interaction score [23]: -2.41
interaction score [24]: -2.87
interaction score [25]: -2.73
interaction score [26]: -2.44
interaction score [27]: -2.97
interaction score [28]: 0.183
interaction score [29]: -2.42
interaction score [30]: -0.884
interaction score [31]: -2.9
interaction score [32]: -2.73
